Laboratory results published in patent publication US20050143285A1.
Where “and” joins values, the source holds several entries; their conditions need not be identical. Identical values can stand only once. Like-named read-outs stand apart in the source and are kept apart here.

T1: Aplysia californica acetylcholine binding protein (AChBP) (Aplysia californica)
T1 chain: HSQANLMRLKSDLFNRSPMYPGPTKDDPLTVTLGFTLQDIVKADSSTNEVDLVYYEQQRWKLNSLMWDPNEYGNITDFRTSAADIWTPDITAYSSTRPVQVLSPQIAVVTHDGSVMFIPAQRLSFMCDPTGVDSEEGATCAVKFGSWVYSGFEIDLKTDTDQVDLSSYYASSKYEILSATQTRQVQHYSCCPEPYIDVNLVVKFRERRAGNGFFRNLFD

B1: α-bungarotoxin, P60615 22-95 (peptide)
chain: IVCHTTATSPISAVTCPPGENLCYRKMWCDAFCSSRGKVVELGCAATCPSKKPYEEVTCCSTDKCNPHPKQRPG
modifications: not checked
B2: α-Cobratoxin, P01391 1-71 (peptide)
chain: IRCFITPDITSKDCPNGHVCYTKTWCDAFCSIRGKRVDLGCAATCPTVKTGVDIQCCSTDNCNPFPTRKRP
modifications: not checked

Assays:
[1] = target: T2, Lymnaea stagnalis acetylcholine binding protein (AChBP) (Lymnaea stagnalis), P58154; experiment: stopped-flow fluorescence; Kd calculated from k-1/k1
[2] = target: T2, Lymnaea stagnalis acetylcholine binding …; experiment: stopped-flow, intrinsic tryptophan fluorescence quenching of Lymnaea AChBP
[3] = target: T2, Lymnaea stagnalis acetylcholine binding …
[4] = target: T2, Lymnaea stagnalis acetylcholine binding …; remark: listed apart in the source
[5] = target: T2, Lymnaea stagnalis acetylcholine binding …; remark: listed apart in the source
[6] = target: T1, Aplysia californica acetylcholine …
[7] = target: T2, Lymnaea stagnalis acetylcholine binding …; experiment: ratio of Kd on Lymnaea AChBP to Kd on Aplysia AChBP
[8] = target: T2, Lymnaea stagnalis acetylcholine binding …; experiment: stopped-flow spectrofluorimetry, excitation 280 nm, emission above 305 nm
[9] = target: T2, Lymnaea stagnalis acetylcholine binding …; experiment: equilibrium titration, intrinsic tryptophan fluorescence of Lymnaea AChBP

T2 sequence (P58154 20-229): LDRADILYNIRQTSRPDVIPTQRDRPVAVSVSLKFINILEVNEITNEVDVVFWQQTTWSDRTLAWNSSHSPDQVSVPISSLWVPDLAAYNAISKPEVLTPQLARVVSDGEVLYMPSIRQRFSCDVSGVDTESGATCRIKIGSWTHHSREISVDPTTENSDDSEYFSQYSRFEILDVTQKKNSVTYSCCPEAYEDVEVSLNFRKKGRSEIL

Binder	Kd [1]	koff [2]	kon [2]	Kd [3]	koff [4]	fold slower rate of association than epibatidine [5]	k2 (unimolecular step of association) [5]	fold lower affinity than for L-AChBP [6]	Kd Ratio L/A [7]	kon [8]	percent quenching of the unliganded receptor fluorescence [9]
GGKPDLRPCHPPCHYIPRPKPR (modifications not checked) [Waglerin-1, P24335 3-24]	6500 nM	31 s⁻¹	4.8e+06 M⁻¹ s⁻¹	–	–	–	–	–	–	–	–
B1	1.8 nM	0.0017 s⁻¹	970000 M⁻¹ s⁻¹	1.8 nM	0.001 s⁻¹	200 fold	0.34 s⁻¹	100 fold	0.0071	900000 M⁻¹ s⁻¹	15% and 20%
B2	3.2 nM	0.011 s⁻¹	3.3e+06 M⁻¹ s⁻¹	–	–	–	–	–	–	–	–
